The results in this text go back to the nanobody polyreactivity screen of Harvey et al. (2022).

This data set in a line: yeast display, Sf9 membrane polyspecificity reagent, FACS + sequencing; frameworks hold sequencing errors. A digest of the protocol: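 Using colony PCR, genes from sorted yeast display clones were amplified, then sequenced on MiSeq at 2 × 250 and filtered by CDR length. The clones had been stained with 10% biotinylated, detergent-solubilized Sf9 membrane reagent for 1 hour at 4 °C and sorted by FACS into low and high (top ~1%) gates on anti-HA and streptavidin fluorescence. Polyreactivity labels come from the gate of origin.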
As for “QVQLVESGGGLVQAGGSLRLSCAASGRIFSLNAMGWYRQAPGNERELVAGNRKRGGSTYYADSVKGRFTISRDNAKNTLYLQMNSLKPEDTAVYYCAAQPALTYRFYYWGQGTQVTVSS”, the “polyreactivity (PSR sort gate)” value is given as “high polyreactivity”. Take “QVQLVESGGGLVQAGGSLRLSCAASGRIFSLYAMGWYRQAPGKERELVAAISRGGSTYYADSVKGRFTISRDNAKNTVYLQMNSLKPEDTAVYYCAAAPDYRAEYDYWGQGTQVTVSS”: the “polyreactivity (PSR sort gate)” value is “low polyreactivity”. Turning to “QVQLVESGGGLVQAGGSLRLSCAASGRIFSNNAIGWYRQAPGKARELVAAHSWNGGRTYYADSVKGRFTISRDNGKNTVYLQMNSLQPEDPAVYYCTKHDAQTRSFASTWYVYWGQGTQVTVSS”, the “polyreactivity (PSR sort gate)” value is reported as “high polyreactivity”. “QVQLVESGGGLVQAGGSLRLSCAASGRIFSNNAMGWYRQAPGKERELVAAITNSGGSTYYADSVKGRFTISRDNAKNTVYLQMNSLKPEDTAVYYCAADHLSVPYDVYWTYSYWGQGTQVTVSS”: the “polyreactivity (PSR sort gate)” value was “low polyreactivity”. To “QVQLVESGGGLVQAGGSLRLSCAASGRIFSNNAMGWYRQAPGKERELVASIDSGDSTTYADSVKGRFTISRDNAKNTVYLQMNSLKPEDTAVYYCNAGPAEADYDYWGQGTQVTVSS” belongs “high polyreactivity”; to “QVQLVESGGGLVQAGGSLRLSCAASGRIFSNYAMGWYRQAPGKERELVAAITRSGGSTYYADSVKGRFTISRDNAKNTVYLQMNSLKPEDTAVYYCNTAYRRRYTYDYWGQGTQVTVSS”, “high polyreactivity”; to “QVQLVESGGGLVQAGGSLRLSCAASGRIFSPNAMGWYRQAPGKERELVAVSSWRGVSTYFADSVKGRFTISRDNAKNTVYLQMNSLKPEDTAVYYCAVDNKSVYYWRQYYYWGQGTQVTVSS”, “high polyreactivity”. “QVQLVESGGGLVQAGGSLRLSCAASGRIFSPYAMGWYRQAPGKERELVAAISYDDGITYYADSVKGRFTISRDNAKNTVYLQMNCLKPEDTAVYYCAADSVTRPAGDYWGQGTQVTVSS”: the “polyreactivity (PSR sort gate)” value is listed as “low polyreactivity”.

For “QVQLVESGGGLVQAGGSLRLSCAASGRIFSPYAMGWYRQAPGKERELVAAITWSGTSTSYADSVKGRFTISRDNAKNTVYLQMNRLKPEDTAVYYCNAVYRSWDRYTFYWYVSNDYWGQGTQVTVSS”, the “polyreactivity (PSR sort gate)” value was “low polyreactivity”. To “QVQLVESGGGLVQAGGSLRLSCAASGRIFSPYAMGWYRQAPGKERELVASIRGSGGSTYYADSVKGPFTISRDNAKNTVYLQMNRLKPEDTAVYYCNARNNYRFLSFGYWGQGTQVTVSS” belongs “high polyreactivity”.

On to “QVQLVESGGGLVQAGGSLRLSCAASGRIFSQNAMGWYRQAPGKERELVAAISGGSTNYADSVKGRFTISRDNAKNTVYLQMNSLKPEDTAVYYCAVRWYFYHRSVEYDYWGQGTQVTVSS”, for which the “polyreactivity (PSR sort gate)” value is recorded as “low polyreactivity”. With “QVQLVESGGGLVQAGGSLRLSCAASGRIFSQYAMGWYRQAPGKARELVAAITKSGGSTYYADSVKGRFTISRDKAKNTVYLQMNSRKPEETAVYYCAKLRSSRDYDYWGQGTQVTVSS”, the “polyreactivity (PSR sort gate)” value is recorded as “high polyreactivity”. On to “QVQLVESGGGLVQAGGSLRLSCAASGRIFSQYAMGWYRQAPGKERELVAAISYDDGITYYADSVKGRFTISRDNAKNTVYLQMNSLKPEDTAVYYCNADGSRRYNYWGQGTQVTVSS”, for which the “polyreactivity (PSR sort gate)” value was “low polyreactivity”. Turning to “QVQLVESGGGLVQAGGSLRLSCAASGRIFSRNALGWYRQAPGKERELVAAISWRGGRTYYAVSVKGRFAISRDNAKNTVYLQMNSLKPEDTAVYYCNAVSFGRARHGGPVYGYDYWGQGTQVTVSS”, the “polyreactivity (PSR sort gate)” value is “high polyreactivity”. Under “QVQLVESGGGLVQAGGSLRLSCAASGRIFSRNAMGWYRQAPGKERELVAAITWRGGSTYYADSVKGRFTISRDNAKNTVYLQMNSLKPEDTAVYYCNRDYRQYGYAYSGRYYWGQGTQVTVSS” stands “high polyreactivity”; under “QVQLVESGGGLVQAGGSLRLSCAASGRIFSRNTMGWYRQAPGKERELVAAISWRGGSTYYADSVKGRFTISRDNAKNTVYLQMNSLKPEDTAVFYCAAVVRSPAYDYWGQGTQVSVSS”, “high polyreactivity”; under “QVQLVESGGGLVQAGGSLRLSCAASGRIFSRYAMGGYRQAPGKERELVAAIRYSGGRTYYADSVKGRFTISRDNAKNTVYLQMNSLIPEDTEVYYCAADGQWYYAPFRGGDYENDYWGQGTQVTVSS”, “low polyreactivity”. To “QVQLVESGGGLVQAGGSLRLSCAASGRIFSRYAMGWYRQAPGKERELVAAITGRGGSTYYADSVKGRFTISRDNAKNTVYLQMNSLKPVDTAVYYCAVANRVTPLFLRYDYWGQGTQVTVSS” belongs “high polyreactivity”. For the sequence “QVQLVESGGGLVQAGGSLRLSCAASGRIFSRYAMGWYRQAPGKERELVAAITWSVGSTYYADSVKGRFTISRDNAKNTVYLQMNSLKPEDTAVSYCAKLVRYYKPGYDYGGQGTQVTVSS”, the “polyreactivity (PSR sort gate)” value is listed as “low polyreactivity”.

Consider “QVQLVESGGGLVQAGGSLRLSCAASGRIFSRYAMGWYRQAPGKERELVAAITYSGGSTYYADSVKGRFTISRDNAKNTVYLQMNSLKPEDTAVYYCNAATYGGRYYYWGQGTQVTVSS”, for which the “polyreactivity (PSR sort gate)” value is “high polyreactivity”. In the case of “QVQLVESGGGLVQAGGSLRLSCAASGRIFSRYVMGWYRQAPGKERELVAAITSSGGRTYYADSVKGRFTISRDNAKNTVYLQMNSLNPEDTAVYYCNNAPWWRTSSDYEYWGQGTQVTVSS”, the “polyreactivity (PSR sort gate)” value is “high polyreactivity”. To “QVQLVESGGGLVQAGGSLRLSCAASGRIFSSNAMGWYRQAPGKEWELVAAITRGGSTNYADSVKGRFTISRDNAKNTDYLQMNSLKPEDTAVYYCNVDYYVFNHQGHLNYDYWGQGTQVTVSS” belongs “high polyreactivity”; to “QVQLVESGGGLVQAGGSLRLSCAASGRIFSSNGMGWYRQAPGKERELVAAIRTDGGSTYYADSVKGRFTISRDNAKNTVYLQMNSLKPEDTAVYYCNAQGAYTDVFDVYQRQPDDYWGQGTQVTVSS”, “low polyreactivity”.

For the sequence “QVQLVESGGGLVQAGGSLRLSCAASGRIFSSNVMGWYRQAPGKERELVAAITSGGSTYYADSVKGRFTISRDNAKNTVYLQMNSLKPEDTAVYYCAASYWVLRYRYDYWGQGTQVTVSS”, the “polyreactivity (PSR sort gate)” value is on record as “high polyreactivity”. Under “QVQLVESGGGLVQAGGSLRLSCAASGRIFSSYAMGWSRPAPGKERELVAAISSSGGNTYYADSVKGRFTISRDNAKNTVYLQMNSLKPEDTAVYYCNTRWVHRDWYDYWGQGTQVTVSS” stands “high polyreactivity”; under “QVQLVESGGGLVQAGGSLRLSCAASGRIFSSYAMGWYRKAPGKERELVAAISGSGGRTYYADSVKGRFTISRDNAKNTVYLQMNSLKPEDTAVYYCNARRRSPYSTGVAYDYWGQVTQVTVSS”, “high polyreactivity”; under “QVQLVESGGGLVQAGGSLRLSCAASGRIFSSYAMGWYRQAPGKERELVAAISRSGARTYYADSVKGRFTISRDNAKNTVYLQMNSLKPEDTAVYYCAAVTVAGYDYWGQGTQVTVSS”, “high polyreactivity”. Take “QVQLVESGGGLVQAGGSLRLSCAASGRIFSSYDMGWYRQAPGKERELVAAISYSGGNTYYADSVKGRFTISRDTAKNTVYLQMNSLKPEDTAVYYCAARLPGYRYYYWGQGTQVTVSS”: the “polyreactivity (PSR sort gate)” value is recorded as “high polyreactivity”. Take “QVQLVESGGGLVQAGGSLRLSCAASGRIFSSYVMGWYRQAPGKERELVAAIRWSGGSTYYADSVKGRFTISRDNAKNTVYLQMNSLKPEDTAVYYCAAVVYRYYATGYGYWGQGTQVTVSS”: the “polyreactivity (PSR sort gate)” value is given as “high polyreactivity”.

For “QVQLVESGGGLVQAGGSLRLSCAASGRIFSTYAMGWYRQAPGKERELVAAITNSAGSTYYADSVKGLFTISRDNAKNTVYLQMNSLKPEDTAVYYCATGWSRISYGFDYWGQGTQVTVSS”, the “polyreactivity (PSR sort gate)” value is “low polyreactivity”.
